Test results as given in article PMC5785730, “Assays of D-Amino Acid Oxidase Activity” (Frontiers in Molecular Biosciences, 2018).

Experiments:
Details in all cases: FAD
purified protein [1] = substrate: C[C@@H](N)C(=O)O; test: purified protein
purified protein [2] = substrate: N[C@H](CCC(=O)O)C(=O)O; test: purified protein
[3] = substrate: NCCCC[C@@H](N)C(=O)O; test: steady-state kinetics, oxygen consumption assay (Km); assay type: biochemical, Rhodotorula toruloides

B1: RgDAAO (D-amino acid oxidase from Rhodotorula gracilis) (Rhodotorula toruloides) (protein)
chain: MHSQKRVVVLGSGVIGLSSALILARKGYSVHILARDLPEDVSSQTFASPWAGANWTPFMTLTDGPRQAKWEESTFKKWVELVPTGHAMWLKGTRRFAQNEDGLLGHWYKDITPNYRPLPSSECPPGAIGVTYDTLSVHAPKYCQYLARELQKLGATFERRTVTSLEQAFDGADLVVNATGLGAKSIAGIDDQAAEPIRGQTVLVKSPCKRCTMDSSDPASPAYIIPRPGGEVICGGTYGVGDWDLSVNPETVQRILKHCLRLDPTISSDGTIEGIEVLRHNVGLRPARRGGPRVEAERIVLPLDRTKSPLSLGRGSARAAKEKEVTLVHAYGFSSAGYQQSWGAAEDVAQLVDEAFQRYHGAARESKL
notes: recombinant wild-type RgDAAO
B1 showed a Km (purified protein [1]) of 1.3 ± 0.2 mM, a Vmax (purified protein [1]) of 100 µmol/min/mg and a Km (purified protein [2]) of 76.4 ± 6.4 mM. It also gave a Vmax (purified protein [2]) of 1.7 µmol/min/mg, a Km [3] of 14.6 ± 1.4 mM and a Vmax [3] of 16.4 µmol/min/mg.
